# PMC7104183 (Cell Reports, 2018)
# Biological target: ectodomain of human DPP4 (residues 39-766) (human, UniProt P27487 39-766)
# Assay: SPR
binder,measurement,value
MERS-CoV RBD (residues 367-588) (domain or fragment) EAKPSGSVVEQAEGVECDFSPLLSGTPPQVYNFKRLVFTNCNYNLTKLLSLFSVNDFTCSQISPAAIASNCYSSLILDYFSYPLSMKSDLSVSSAGPISQFNYKQSFSNPTCLILATVPHNLTTITKPLKYSYINKCSRFLSDDRTEVPQLVNANQYSPCVSIVPSTVWEDGDYYRKQLSPLEGGGWLVASGSTVAMTEQLQMGFGITVQYGTDTNSVCPKL,binding result,binds
